Reference: patent publication US20060242739A1, “Plant nucleotide-sugar pyrophosphatase/phosphodiesterase (nppase), method of obtaining same and use of same in the production of assay devices and in the production of transgenic plants” (Universidad Publica De Navarra, priority 2002, published 2006)

Legend:
Assay in all cases: purified protein, by the assay type
[1] = substrate: Nc1ncnc2c1ncn2[C@@H]1O[C@H](COP(=O)(O)OS(=O)(=O)O)[C@@H](O)[C@H]1O; details: other: substrate of NPPase from rice leaves; pH 7.0; 37.0 °C
[2] = substrate: Nc1ncnc2c1ncn2[C@@H]1O[C@H](COP(=O)(O)OP(=O)(O)OP(=O)(O)O)[C@@H](O)[C@H]1O; details: pH 7.0
[3] = substrate: Nc1ccn([C@@H]2O[C@H](COP(=O)(O)OP(=O)(O)O[C@H]3O[C@H](CO)[C@@H](O)[C@H](O)[C@H]3O)[C@@H](O)[C@H]2O)c(=O)n1; details: pH 7.0
[4] = substrate: Nc1ncnc2c1ncn2[C@@H]1O[C@H](COP(=O)(O)OP(=O)(O)O)[C@@H](O)[C@H]1O; details: pH 7.0
[5] = substrate: Nc1ncnc2c1ncn2[C@@H]1O[C@H](COP(=O)(O)OP(=O)(O)O[C@H]2O[C@H](CO)[C@@H](O)[C@H](O)[C@H]2O)[C@@H](O)[C@H]1O; details: pH 7.0
[6] = substrate: Nc1nc2c(ncn2[C@@H]2O[C@H](COP(=O)(O)OP(=O)(O)O[C@H]3O[C@H](CO)[C@@H](O)[C@H](O)[C@@H]3O)[C@@H](O)[C@H]2O)c(=O)[nH]1; details: pH 7.0
[7] = substrate: Cc1cn([C@H]2C[C@H](O)[C@@H](COP(=O)(O)OP(=O)(O)O[C@H]3O[C@H](CO)[C@@H](O)[C@H](O)[C@H]3O)O2)c(=O)[nH]c1=O; details: other: substrate of NPPase from rice leaves; pH 7.0; 37.0 °C
[8] = substrate: O=[N+]([O-])c1ccc(OP(=O)(O)Oc2ccc([N+](=O)[O-])cc2)cc1; details: pH 7.0
[9] = substrate: Nc1nc2c(ncn2[C@@H]2O[C@H](COP(=O)(O)OP(=O)(O)O[C@H]3O[C@H](CO)[C@@H](O)[C@H](O)[C@H]3O)[C@@H](O)[C@H]2O)c(=O)[nH]1; details: other: substrate of NPPase from rice leaves; pH 7.0; 37.0 °C
[10] = substrate: O=[N+]([O-])c1ccc(OP(=O)(O)O)cc1; details: other: substrate of NPPase from barley leaves; pH 7.0
[11] = substrate: Nc1ncnc2c1ncn2[C@@H]1O[C@H](COP(=O)(O)OP(=O)(O)O[C@H]2O[C@H](CO)[C@@H](O)[C@H](O)[C@@H]2O)[C@@H](O)[C@H]1O; details: other: substrate of NPPase from barley leaves; pH 7.0
[12] = substrate: NC(=O)c1ccc[n+]([C@@H]2O[C@H](COP(=O)(O)OP(=O)(O)OC[C@H]3O[C@@H](n4cnc5c(N)ncnc54)[C@H](O)[C@@H]3O)[C@@H](O)[C@H]2O)c1; details: other: substrate of NPPase from barley leaves; pH 7.0
[13] = other: substrate of NPPase from rice leaves, 37.0 °C
[14] = other: substrate of NPPase from barley leaves

B1: NPPase from rice leaves (Oryza sativa Japonica Group) (protein)
chain: SRPSSSLEGFQPLSKIAVHKATVDLHGSAFVSATPALLGDQGEDTEWVTVKYGWANPSADDWIAVFSPADFISGSCPNPSRYPDEPLLCTAPIKYQFANYSANYVYWGKGSIRFQLINQRYDFSFALFTGGLENPKLVAVSEAISFKNPKAPVYPRLAQGKSYDEMTVTWTSGYDISEAYPFVEWGMVVAGAAAPTRTAAGTLTFNRGSMCGEPARTVGWRDPGFIHTAFLRDLWPNKEYYYKIGHELSDGSIVWGKQYTFRAPPFPGQNSLQRIIVFGDMGKAERDGSNEFANYQPGSLNTTDRLVEDLDNYDIVFHIGDLPYANGYISQWDQFTAQVAPITAKKPYMIASGNHERDWPNTGGFFDVKDSGGECGVPAETMYYYPAENRANFWYKVDYGMFRFCIADSEHDWREGTDQYKFIEQCLSTVDRKHQPWLIFAAHRVLGYSSNWWYADQGSFEEPEGRESLQRLWQRHRVDVAFFGHVHNYERTCPMYQSQCVSGERRRYSGTMNGTIFVVAGGGGSHLSDYTSAIPKWSVFRDRDFGFVKLTAFNHSSLLFEYKKSSDGKVYDSFTVERDYRDVLSCVHDSCLPTTLAS
Km [1]: 3040 µM | Km [2, 13]: 2060 µM | Vmax [2, 13]: 356 µmol/min/mg | kcat/Km [2, 13]: 203000 M⁻¹ s⁻¹ | Km [3, 13]: 920 µM | Vmax [3, 13]: 107 µmol/min/mg | Km [4, 13]: 4330 µM | Vmax [4, 13]: 385 µmol/min/mg | kcat/Km [4, 13]: 100000 M⁻¹ s⁻¹ | Km [5, 13]: 600 µM | Vmax [5, 13]: 183 µmol/min/mg | kcat/Km [5, 13]: 350000 M⁻¹ s⁻¹ | Km [6, 13]: 800 µM | Vmax [6, 13]: 129 µmol/min/mg | kcat/Km [6, 13]: 190000 M⁻¹ s⁻¹ | Km [7]: 600 µM | Vmax [7]: 106 µmol/min/mg | kcat/Km [7]: 206000 M⁻¹ s⁻¹ | Km [8, 13]: 1300 µM | Vmax [8, 13]: 191 µmol/min/mg | kcat/Km [8, 13]: 171000 M⁻¹ s⁻¹ | Km [9]: 930 µM | Vmax [9]: 119 µmol/min/mg | kcat/Km [9]: 148000 M⁻¹ s⁻¹

B2: NPPase from barley leaves (Hordeum vulgare) (protein)
chain: SDGSVVWAKPYTFRAPPTPGQNSLQRIIVFGDMGKAERDGSNEFANYQPGSLNTTDRLIEDLDNYDIVFHIGDMPYANGYLSQWDQFTAQVAPISAKKPYMVASGNHERDWPNTGGFFDVKDSGGECGVPAETMYYYPAENRANFWYKVDYGMFRFCVGDSEHDWREGTPQYKFIEECLSTVDRKHQPWLIFTAHRVLGYSSNSWYADQGSFEEPEGRESLQKLWQRYRVDIAYFGHVHNYERTCPLYQSQCVNADKTHYSGTMNGTIFVVAGGGGSHLSSYTTAIPKWSIFRDHDYGFTKLTAFNHSSLLFEYMKSSDGKVYDSFTIHRDYRDVLSCVHDSCFPTTLAS
Km [2, 14]: 3500 µM | Km [3, 14]: 2800 µM | Km [4, 14]: 3500 µM | Km [5, 14]: 500 µM | Km [10]: 500 µM | Km [6, 14]: 400 µM | Km [8, 14]: 300 µM | Km [11]: 400 µM | Km [12]: 2500 µM
